Test: yeast display, Sf9 membrane polyspecificity reagent, FACS + sequencing; frameworks hold sequencing errors
Method in brief: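 Galactose induction of a Saccharomyces cerevisiae BJ5465 synthetic nanobody display library ran 36–48 hours. The cells were then stained for 1 hour at 4 °C with 10% biotinylated, detergent-solubilized Sf9 membrane reagent, pulled down on streptavidin microbeads and FACS-sorted into low and high (top ~1%) gates on expression and reagent-binding fluorescence. Labels for polyreactivity follow the gate of origin.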

| Sequence | polyreactivity (PSR sort gate) |
| --- | --- |
| QVQLVESGGGLVQAGGSLRLSCAASGSTFENNAMGWYRQAPGKERELVASSTNYADSVKGRFTISRDNAKNTVYLQMNSLKPEDTAVYYCNLDTNSSYEFNSWGQGTQVTVSS | low polyreactivity |
| QVQLVESGGGLVQAGGSLRLSCAASGRTFYYNDMGWYRQAPGKERELVAAISWSGVSTSYADSVKGRFTISRDNAKNTVYLQMNSLKPEDTAVYYCAADNDGWYFHITEYDYWGQGTQVTVSS | low polyreactivity |
| QVQHVESGGGLVQAGGSLRLSCAASFYVYAMGWYRQAPGKERELVAAITYSGGGTYYADSVKGRFTISRDNAKKTVYLQMYSLKPEDTAVYYCNARATAYGWRGYAGFEFDYWGQGTQVTVSS | low polyreactivity |
| KVQLVESGGGLVQAGGSLRLSCAASGSILSPNAMGWYRQAPGKERELVAAINSGGGSTYYADSVKGRFTLSRDNAKNTVYLQMNSLKPEDTAVYYCAADHYYYRSRAYTYIIYDYWGQGTQVTVSS | low polyreactivity |
| QVQLEESGGGLVQAGGSLRLSCAASGRICAYYTMGWYRQAPGKERELVASITSGSSTNYADSVKGRFTISRDNAKNTVYLQMNSLKPEDTAVYYSAAPRGSYVRTRYRGYVVQSNYWGQGTQVTVSS | high polyreactivity |
| QVLLQESGSGLVQAGGSLRLSCAASGTISTDIRIGLYRLAPRKEREFVASIDGCSTTYYADSVKGRFTISRDNAKNSVYLQMNSLKPEVTAMYYCAAREATEFYLYYWGQGTQVTVSS | low polyreactivity |
| QVQLVESGGGLVQAGGSLRLSCAASGRIFYRYAMGWYRQAPGKERELVADITWRGGRTYYADSVKGRFTISRDNAKNTVYLQMNSLKPEDTAVYYCAATGGFYYWGQGTQVTVSS | low polyreactivity |
| QVQLVESGGGLVQAGGSLRLSCAASGSTFYFYAMGWYRQAPGKEREFVAAITASGGSTYYADSVKGRFTISRDNAKNTVYLQMNSLKPEDTAVYYCAARFSYWKTKRAYDWGQGTQVTVSS | high polyreactivity |
| QVQLVESGGGLVQAGGSLRLSCAASGSTSAPNAMGWYRQAPGKERELVAAISWTGGSTSYADSVKGRFTISRDNAKNTVYLQMNSLKPPDTAVYYCAKRSYGLTRAYSAGNYWGQGTQVTVSS | low polyreactivity |
| QVQLVESGGGLVQAGGSLRLSCAASGLTLYYYAMGWYRQAPGKERELVAAINRGGSTYYSDSVKGRFTISRDNEKNTVYLLMNSLKPEDTAVYYCAVDYGVRDLTYYYCGQGTQVTVSS | low polyreactivity |
| QVQLVESGGGIVQAGGSLRLRCAASGLIFAYNAMGGDRQAPGKEREFVAAINSGGDSTYYADCVKGRFTISRDNAKNTVYLQMNSLKPEDTAVYYCAAVSGNKRYYYWGHGTQVTVSS | low polyreactivity |
| QVQLVESGGGLVQAGGSLRLSCAASGSTFDDNALGWYRQAPGKERELVAAISSRGSTYYADSVKGLFTISRDNAKNTVYLQMNSLKPEDTAVYYCAKRTYRYYGLNAYYYWGQGTQVTVSS | high polyreactivity |
| QVHLVESGGGLVQAGGSLRLSCAASGSIFYSNAMGWYRQAPGKERELVAAITRGGSTHYADSVKGRFTISRDNAKNTVYLQMNSLKPEDTAVYYCNKDLNFAKYISSILYDYWGQGTQVSVSS | low polyreactivity |
| QVQLVDSGGGLVQAGGSLRLSCAASGSIFPGNPMGWYRQAPGKERELVAVIDFSGASTYYADSVKGRFTISRDNAKNTVYFQMNSLKPEDTADYWGQCTQVTVSS | low polyreactivity |
| QVQLVESGGGLVQAGGSLRISCAASGRIFGDNGMGWYSQAPGKERELVTYADSVKGRFTISRDNAKNTVYLQMNSLKPEDTAVYYCYKDPPRFSGLDENYWGQGSQVTVSS | low polyreactivity |
| QVQLVESGGGLVQAGGSLRLSSAASGSTFDYYALGWYSQARGKERELVAAISTSGSSTYYADSVKGRFTISRDNAKNTVYLQMNSLKPVDTAVYYCAAPIRYKGGYWGQGTQVTVSS | low polyreactivity |
| QVQLVESGGVLVQAGGSLPLSCAASGFTFSRYAMGWYRQAPGKEREFVAGISRSGGSTYYADSVKGRFTNTRDNAMNTVSLQMNSLKPEDTAVYYWAKVYPATEAGDYWGQGTQVTVSS | high polyreactivity |
| QVQLVESGGGLVQAGGSLRLSCAASGFIFSVNTMGWYRQAPGKERELVAAISGSGGSTYYADSVKGRFTISRDNAKNTVYLQMNSLKPEDTAVYYCAAGVAWRFYSWGQGTQVTVSS | high polyreactivity |
| QVQLVESGGGLFQAGGSLRLSCAASGTFVTYMGWYRQEPGQERELVAAIRNGGSTNYADSVKGRFTISRDNAKNTVYLQMNSLKPEDTAVYYCAARVTYSRGYRGGSRTKYDYWGQGTQVTVSS | low polyreactivity |
| QVQLVESGGGLVQAGGSLRLSCAASGFTFSSNAMGWYRQAPGKEREFVAAISFNSTSTYYADSVKGRFKISRDNAKNTVYLQMNSLKPEDTAVYYCAADVPRVQSEPEYDYWGQGTQVTVSS | low polyreactivity |
| QVQLVESGGGLVQAGGSLRLSCAASGRTFTRYTMGWYRQAPGKERELVAAISSGGSTTYADSVKGRFTISRDNAKNTVYLQMNSLKPEDTAVYYCAAGLVYRGYRRDYWGQGTQVTVSS | low polyreactivity |
| QVQLVESGGGLVQAGGSLRLSCAASGSTFFTNVMGWYRQAPGKERELVAVIRWRGSDTYYADSVKGRFTISRDNAKNTVYLQMNSLKPEDTAVYYSNAKESFYPTTGEQGYSYDYWGQGTQVTVSS | low polyreactivity |

| Sequence | polyreactivity (PSR sort gate) |
| --- | --- |
| QVQLQESGGGLVLAGGSLRLSCSASGNIYVYGYKGWYRQAPRKEREFVATIDPGTNTNYADSVKDRFSISRDNAKNSVYLQMKSLKPEDNAVYYCAVEAGSDWPYRYWGLGTQVTVSS | low polyreactivity |
| QVQLVESGGGLVQAGGSLRLSCAASGSIFGSYTMGWYRQAPGKERELVAAISLGGGSTYYADSVKGRFSISRDNAKNTVYLQMNSLKPEDTAVYYCAAGFTYPYDYWGQGTQVTVSS | low polyreactivity |
| QVQLVESGGGLVQAGGSLRLSCAASGRIFNNYAMGWYRPAPGKERELVAAISTSGGSTYYADSVKGRFTISRDNAKNTVYLQMNSLKPEDTAVYYCNAVSRKRHYAPSYDYWGQGTQVTVSS | high polyreactivity |
| QVQLVESGGGLVQAGGSLRLSCAASGSILGYYAMRWYRQAPGKERELVAAITASGGSTYYADSVKGRFTISRDNAKNTVYLQMNSLKPEDTAAYYCAAQYYATYGYWGQGTQVTVSS | low polyreactivity |
| QVQLVESGGGLVQAGGSLRLSCAASGSTFRYYAMGWYRQAPGKERELVAGITRIGGRTYYADSVKGRFTISRDNAKNTVDLQMNSLKPEDTAVYYCAADYGGFLGYDYWGQGTQVTLSS | high polyreactivity |
| QVQLVESGGGLVQAGGSLRLSCAASGRIFTPNAMGWCRQAPGKERELVAAITWSGDNTYADSVKGRFTISRDNAKNTVYLQMNSLKPEDTAVYYCAAAYGYGHKKYGYWGQGTQVTVSS | low polyreactivity |
| QVQLVESGGGLVQAGGSLRLSCAASGRTYGGNAMGWYRQAPGKERELVAAITVSAGHTYYADSVKGRFTISRDNAKNTVYLQMKSLKPEDTAVYYCAKVYHWYYSYDYWGQGTQVTVSS | low polyreactivity |
| QVQLVESGGGLVQAGGSLRLSCAASGSTFSPYAMGWYIQAPGKERELVAAIRVRVGGNTYYADSVKGRFTISRDNAKNTVYLQMNSLKPEDTAVYYCAAYSRTLYPDRYYWGQGTQVTVSS | high polyreactivity |
| QVQLVESGGGLVQAGGSLRLSCAASGRTFGGYAMGWYRQAPGKERELVAAITSDTGTNYADSVKGRFTISRDNAKNTVYLQMNSLKPEDTAVYYCAADRFYEYDYWGQGTQVTVSS | low polyreactivity |
| QVQLVESGGGLVQAGGSLRLSCAASGPIIDFYAMGWSRKAPGKERELVAAISWRGGSTYYADSVKGRFTISRDNAKNSVYLQMNSLKPEDTAVYYCANRFGPRYYWGQGTQVTVSS | low polyreactivity |
| QVQLVESGGGLVQAGGSLRLSCAASGSIFYTNVMGWYRQAPGKERELVAAISSRGGSTYYADSVKGRFTISRDNAKNTVYLQMNSLKPEDTAVYYCAARFLHYYPTRGYTYDYWGQGTQVTVSS | high polyreactivity |
| QVQLVESGGGIVQAGGSLRLSCAASGGTFRVNAMVWYRQAPGKEREFVAAISGSGSSTYYADSVKGRFTISRDNAKNTVYLQMNSLKPEDTAVYYCAARSGVGGDNDYWGQGTQVTVSS | low polyreactivity |
| QVQLVESGGGLVQAGGSLRLSCAASGSTFGYYTMGWYRQAPGKERELVAAISWSGGSTYYADSVKGRFTISRDNAKNTVYLQMNSLKPEDTAVYYCAALGYTYKYYSYYWGQGTQVTVSS | high polyreactivity |
| QVQLVESGGGLVQAGGILRLSWAASGRTFRYYAMGWYRQAPGKDREFVAAISWSGGSTYYADSVKGRFTISRDNAKNTVYLQMNSLKPEDTAVFYCAAESIYTWGIRGAYWGQGTQVTVSS | high polyreactivity |
| QVQLVESGGGLVQAGGSLRLSCAASGSTFYSYAMGWYRQAPGKERELVAAISWDGGLTYYADSVKGRFTISRDTAKNTVYLQMNSLKPEDTAVYYCAAAYPTYRHYYWGQGTQVTVSS | low polyreactivity |
| QVQVVESGGGLVQAGGSLRLSCAASGRTFYGNAMGWYRQAPGKERELVASITSRGDNTYYADSVKGRFTISRDNAKNTVYFQMNSLKPEDTAVYYCAAGTVYYTYLWMGYWGQGTQVTVSS | low polyreactivity |
| QVQLVESGGGLVQAGGSLRLSCAASGSTSVQYAKGWYRQAPGKERELVAAIDRSGGSTSYADSVKGRFTISRDNAKNTVYLQMNSLKPEDTAVYYCNADPVRSTYSYDYWGLGTQVTVSS | low polyreactivity |
| QVQLVESGGGLVQAGGSLRLSCAASGSTMRFYAMGWYRQAPGKERELVAAISSSGSSTYYADSVKGRFTISRDNAKNTVYLQMNSLKPEDTAVYYCSGYGYWGQGTQLTVSS | high polyreactivity |
| QVQLVESGGGLVQAGGSLRLSCAASGGIFSPNAMGWYRQAPGKERELVAAISSNGGSTNYADSVKGRFTISRDNAKNTVYLQMNSLKPEDTAVYYCAGLQKRRSYWRPFYWGQGTQVTVSS | low polyreactivity |
| QVQLVESGGRLVQAGGSLRLSCAASGIFYTYDMGRYRQAPGKERELVATINSGGSTNYADSVKGRFTISRDNAKNTVYLQMNSLKPEDTAVYYCAAAEDVYSERPRYDYWGQGTQVTVSS | low polyreactivity |
| QVQLVESGGGLVQAGGSLRLSCAASGSTSYVYAMGWYRQAPGKERELVAAISGSGGRTYYADSVKGRFTISRDNAKNTVYLQMNSLKPEDTAVYYCAADYIFRRYPVGGIYDYDYWGQGTQVTVSS | high polyreactivity |
